Data from US20190112387A1 (ISTITUTO BIOCHIMICO ITALIANO GIOVANNI LORENZINI S P A, published 2019).
Blank lines part the entries; values can stand above or below the binder they belong to.

Target: T1, human ERBB2 receptor (human, UniProt P04626 23-1255)
T1 construct: whole, on cells; Presented on human breast carcinoma cell lines with different ERBB2 levels; also called HER2; Neu-Erb
Assay: flow cytometry on SK-BR-3 cells (FIG. 7 legend)
Description: Humanized heavy SEQ NO.1 and light chains SEQ. NO.2 or SEQ. […] The cells were cultured in Erlenmeyer flask in incubator at 37° C., 5% CO₂ on a shaker at 120 rpm for at least 14 days. The surnatants were purified through standard protein A resins. […] NO.1 and SEQ.

binding result: binds
B1: humanized W6/800 antibody huW6/800 (antibody, V domains shown)
VH: QVQLVQSGAEVKKPGASVKISCKASGYTFSNYWIEWVRQAPGQGLEWMGEILPGSGSTNYNEKLKGRVTSTRDTSISTAYMELSRLRSDDTGVYYCARGGGNYPYYFDYWGQGTTVTVSS
VL: DIQMTQSPSTLSASVGDRVTITCKASQDVGTAVAWYQQKPGKAPKLLIYWASTRHTGVPSRFSGSGSGTEFTLTISSLQPDDFADYFCQQYSSYRTFGAGTKLEIK
notes: also called humanized antibody

binding result: binds
B2: mAb W6/800 (antibody, V domains shown)
VH: QVQLQQSGAELMKPGASVKISCKATGYTFSNYWIEWVKQRPGHGLEWIGEILPGSGSTNYNEKLKGKATFTADTSSNTAYMQLSSLTSEDSGVYYCARGGGNYPYYFDYWGQGTTVTVSS
VL: IELMTQSHKFMSTSVGDRVSITCKASQDVGTAVAWYQQKPGQSPKLLIYWASTRHTGVPDRFTGSGSGTDFTLTISNVQSEDLADYFCQQYSSYRTFGAGTKLE
notes: Murine IgG2a purified from hybridoma cultures; they are assigned here by order and by likeness to the humanized VH and VL; also called murine W6/800; parental murine antibody
